Results published in patent US6046310, “FAS ligand fusion proteins and their uses” (Protein Design Labs., Inc., dated 2000).
Positions count from the first letter of the chain named. Names and notes keep the numbering of the source.

Key:
[1] = target: T1, Fas on the cell surface of human cell lines (MOLT-4, CESS, T47D) (human, UniProt P25445); assay: cell-based or functional assay
[2] = target: T1, Fas on the cell surface of human cell …; assay: flow cytometry on MOLT-4 cells (express Fas but not the antigen for HuABL364), anti-human IgG FITC
Procedure: MOLT-4, a human T lymphocyte line that expresses Fas on the cell surface (B. Trauth et al., *Science*, 245:301, 1989, incorporated herein by reference) but not the antigen for HuABL364, was stained by incubation with protein G-purified HuABL364 lg-FasL followed by incubation with an anti-human IgG FITC reagent (Jackson Immunoresearch, #715-096-151). Positive staining by HuABL364 Ig-FasL was detected by flow cytometry, compared to negative staining with the HuABL364 antibody.

B1: HuABL364 Ig-FasL5 (other)
heavy (part 1 of 2): EVQLLESGGGLVQPGGSLRLSCAASGFTFSDYYMYWVRQAPEKRLEWVAYISNGGGSSHYVDSVKGRFTISRDNAKNTLYLQMNSLRAEDTALYHCARGMDYGAWFAYWGQGTLVTVSS
heavy (part 2 of 2): GTGHPSPPPEKKELRKVAHLTGKSNSRSMPLEWEDTYGIVLLSGVKYKKGGLVINETGLYFVYSKVYFRGQSCNNLPLSHKVYMRNSKYPQDLVMMEGKMMSYCTTGQMWARSSYLGAVFNLTSADHLYVNVSELSLVNFEESQTFFGLYKL
light: DIVMTQSPLSLPVTPGEPASISCRSSQSIVHSNGNTYLEWYLQKPGQSPQLLISKVSNRFSGVPDRFSGSGSGTDFTLKISRVEAEDVGVYYCFQGSHVPFTFGQGTKLEIK
% apoptotic cells, CESS [1]: 88 % apoptotic cells
% apoptotic cells, T47D [1]: 91 % apoptotic cells

B2: HuABL364 Ig-FasL5 I168A (other)
heavy (part 1 of 2): B1 heavy (part 1 of 2)
heavy (part 2 of 2): B1 heavy (part 2 of 2) with I39A
light: B1 light
% apoptotic cells, CESS [1]: 81 % apoptotic cells
% apoptotic cells, T47D [1]: 91 % apoptotic cells

B3: HuABL364 Ig-FasL5 Y189A (other)
heavy (part 1 of 2): B1 heavy (part 1 of 2)
heavy (part 2 of 2): B1 heavy (part 2 of 2) with Y60A
light: B1 light
% apoptotic cells, CESS [1]: 24 % apoptotic cells
% apoptotic cells, T47D [1]: 11 % apoptotic cells

B4: HuABL364 antibody (antibody, V domains shown)
VH: B1 heavy (part 1 of 2)
VL: B1 light
binding result [2]: no binding

B5: HuABL364 Ig-FasL5 V248A (other)
heavy (part 1 of 2): B1 heavy (part 1 of 2)
heavy (part 2 of 2): B1 heavy (part 2 of 2) with V119A
light: B1 light
% apoptotic cells, CESS [1]: 87 % apoptotic cells
% apoptotic cells, T47D [1]: 95 % apoptotic cells

B6: HuABL364 Ig-FasL5 M229A (other)
heavy (part 1 of 2): B1 heavy (part 1 of 2)
heavy (part 2 of 2): B1 heavy (part 2 of 2) with M100A
light: B1 light
% apoptotic cells, CESS [1]: 90 % apoptotic cells
% apoptotic cells, T47D [1]: 95 % apoptotic cells

B7: HuABL364 Ig-FasL5 H148S (other)
heavy (part 1 of 2): B1 heavy (part 1 of 2)
heavy (part 2 of 2): B1 heavy (part 2 of 2) with H19S
light: B1 light
% apoptotic cells, CESS [1]: 26 % apoptotic cells
% apoptotic cells, T47D [1]: 15 % apoptotic cells

B8: HuABL364 Ig-FasL5 L170A (other)
heavy (part 1 of 2): B1 heavy (part 1 of 2)
heavy (part 2 of 2): B1 heavy (part 2 of 2) with L41A
light: B1 light
% apoptotic cells, CESS [1]: 87 % apoptotic cells
% apoptotic cells, T47D [1]: 98 % apoptotic cells

B9: HuABL364 Ig-FasL5 Y192A (other)
heavy (part 1 of 2): B1 heavy (part 1 of 2)
heavy (part 2 of 2): B1 heavy (part 2 of 2) with Y63A
light: B1 light
% apoptotic cells, CESS [1]: 25 % apoptotic cells
% apoptotic cells, T47D [1]: 10 % apoptotic cells

B10: HuABL364 Ig-FasL5 Y232A (other)
heavy (part 1 of 2): B1 heavy (part 1 of 2)
heavy (part 2 of 2): B1 heavy (part 2 of 2) with Y103A
light: B1 light
% apoptotic cells, CESS [1]: 32 % apoptotic cells
% apoptotic cells, T47D [1]: 88 % apoptotic cells

B11: HuABL364 Ig-FasL5 Y244A (other)
heavy (part 1 of 2): B1 heavy (part 1 of 2)
heavy (part 2 of 2): B1 heavy (part 2 of 2) with Y115A
light: B1 light
% apoptotic cells, CESS [1]: 24 % apoptotic cells
% apoptotic cells, T47D [1]: 16 % apoptotic cells
